The results in this text go back to paper PMC11574045, “A cofactor-induced repressive type of transcription factor condensation can be induced by synthetic peptides to suppress tumorigenesis” (The EMBO Journal, 2024).

The subject of the assay is HEK293FT cells transfected with TF library. The experiment in a line: Screening of TF condensates based on fluorescent puncta. Format: cell-based. Particulars: Figure 1B numerical data; TF library screen, one value per transcriptional factor. The gist of the method: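 HEK293FT cells were reverse-transfected with Flag- or GAL4-tagged TF plasmids (1.6 μg/ml, PEI). After 60 h, cells were cultured 12 h with or without glucose, then fixed and immunostained with anti-Flag or anti-GAL4 and Alexa 488 secondaries. Fluorescent puncta were imaged over fifty random fields per well by high-content imaging.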

B1: ZNF165 (protein, UniProt P49910 1-485, looked up)
Zinc finger protein 165: MATEPKKAAAQNSPEDEGLLIVKIEEEEFIHGQDTCLQRSELLKQELCRQLFRQFCYQDSPGPREALSRLRELCCQWLKPEIHTKEQILELLVLEQFLTILPGDLQAWVHEHYPESGEEAVTILEDLERGTDEAVLQVQAHEHGQEIFQKKVSPPGPALNVKLQPVETKAHFDSSEPQLLWDCDNESENSRSMPKLEIFEKIESQRIISGRISGYISEASGESQDICKSAGRVKRQWEKESGESQRLSSAQDEGFGKILTHKNTVRGEIISHDGCERRLNLNSNEFTHQKSCKHGTCDQSFKWNSDFINHQIIYAGEKNHQYGKSFKSPKLAKHAAVFSGDKTHQCNECGKAFRHSSKLARHQRIHTGERCYECNECGKSFAESSDLTRHRRIHTGERPFGCKECGRAFNLNSHLIRHQRIHTREKPYECSECGKTFRVSSHLIRHFRIHTGEKPYECSECGRAFSQSSNLSQHQRIHMRENLLM
For the molecule B1, the “Z score of condensed fraction” value worked out at 0.7106.

B2: CARF (protein, UniProt Q9NXV6 2-580, looked up)
CDKN2A-interacting protein: AQEVSEYLSQNPRVAAWVEALRCDGETDKHWRHRRDFLLRNAGDLAPAGGAASASTDEAADAESGTRNRQLQQLISFSMAWANHVFLGCRYPQKVMDKILSMAEGIKVTDAPTYTTRDELVAKVKKRGISSSNEGVEEPSKKRVIEGKNSSAVEQDHAKTSAKTERASAQQENSSTCIGSAIKSESGNSARSSGISSQNSSTSDGDRSVSSQSSSSVSSQVTTAGSGKASEAEAPDKHGSASFVSLLKSSVNSHMTQSTDSRQQSGSPKKSALEGSSASASQSSSEIEVPLLGSSGSSEVELPLLSSKPSSETASSGLTSKTSSEASVSSSVAKNSSSSGTSLLTPKSSSSTNTSLLTSKSTSQVAASLLASKSSSQTSGSLVSKSTSLASVSQLASKSSSQTSTSQLPSKSTSQSSESSVKFSCKLTNEDVKQKQPFFNRLYKTVAWKLVAVGGFSPNVNHGELLNAAIEALKATLDVFFVPLKELADLPQNKSSQESIVCELRCKSVYLGTGCGKSKENAKAVASREALKLFLKKKVVVKICKRKYRGSEIEDLVLLDEESRPVNLPPALKHPQELL
As to B2, the “Z score of condensed fraction” value is 2.409.

B3: ZKSCAN3 (protein, UniProt Q9BRR0 1-538, looked up)
Zinc finger protein with KRAB …: MARELSESTALDAQSTEDQMELLVIKVEEEEAGFPSSPDLGSEGSRERFRGFRYPEAAGPREALSRLRELCRQWLQPEMHSKEQILELLVLEQFLTILPGNLQSWVREQHPESGEEVVVLLEYLERQLDEPAPQVSGVDQGQELLCCKMALLTPAPGSQSSQFQLMKALLKHESVGSQPLQDRVLQVPVLAHGGCCREDKVVASRLTPESQGLLKVEDVALTLTPEWTQQDSSQGNLCRDEKQENHGSLVSLGDEKQTKSRDLPPAEELPEKEHGKISCHLREDIAQIPTCAEAGEQEGRLQRKQKNATGGRRHICHECGKSFAQSSGLSKHRRIHTGEKPYECEECGKAFIGSSALVIHQRVHTGEKPYECEECGKAFSHSSDLIKHQRTHTGEKPYECDDCGKTFSQSCSLLEHHRIHTGEKPYQCSMCGKAFRRSSHLLRHQRIHTGDKNVQEPEQGEAWKSRMESQLENVETPMSYKCNECERSFTQNTGLIEHQKIHTGEKPYQCNACGKGFTRISYLVQHQRSHVGKNILSQ
On to B3, for which the “Z score of condensed fraction” value turned out to be 0.9842.

B4: CARHSP1 (protein, UniProt Q9Y2V2 2-147, looked up)
Calcium-regulated heat-stable …: SSEPPPPPQPPTHQASVGLLDTPRSRERSPSPLRGNVVPSPLPTRRTRTFSATVRASQGPVYKGVCKCFCRSKGHGFITPADGGPDIFLHISDVEGEYVPVEGDEVTYKMCSIPPKNEKLQAVEVVITHLAPGTKHETWSGHVISS
Take B4: the “Z score of condensed fraction” value is 2.822.

B5: ZNF174 (protein, UniProt Q15697 1-407, looked up)
Zinc finger protein 174: MAAKMEITLSSNTEASSKQERHIIAKLEEKRGPPLQKNCPDPELCRQSFRRFCYQEVSGPQEALSQLRQLCRQWLQPELHTKEQILELLVMEQFLTILPPEIQARVRHRCPMSSKEIVTLVEDFHRASKKPKQWVAVCMQGQKVLLEKTGSQLGEQELPDFQPQTPRRDLRESSPAEPSQAGAYDRLSPHHWEKSPLLQEPTPKLAGTEAPRMRSDNKENPQQEGAKGAKPCAVSAGRSKGNGLQNPEPRGANMSEPRLSRRQVSSPNAQKPFAHYQRHCRVEYISSPLKSHPLRELKKSKGGKRSLSNRLQHLGHQPTRSAKKPYKCDDCGKSFTWNSELKRHKRVHTGERPYTCGECGNCFGRQSTLKLHQRIHTGEKPYQCGQCGKSFRQSSNLHQHHRLHHGD
Take B5: the “Z score of condensed fraction” value is listed as -0.9036.
